Measured values taken from US20080242590A1, “New Method 706” (ASTRAZENECA AB, priority 2007, published 2008).

Key:
Aβ 1-42 [1] = assay: Degradation of Aβ 1-42 in human plasma pool (Example 28); type: biochemical; settings: room temperature, 1 hour
Protocol: (§1) Blood from twelve individuals (6 females and 6 males) were collected into pre-chilled heparin-plasma tubes at the healthcare centre (AstraZeneca) at three different time points. Plasma was prepared by centrifugation at 2500×g for 20 min at 4° C. Plasma samples were collected and transferred to pre-chilled polypropylene tubes and immediately frozen and stored at −70° C. prior to use. Plasma was thawed and pooled from 12 individuals just before the experiment. Aβ 1-40 and 1-42 in plasma pool was degraded by human Fc-Nep or mouse Fc-Nep with corresponding vehicles (50 mM Tris-HCl, 150 mM NaCl pH 7.5). The following final concentrations of the Fc-Nep constructs were used, 100, 32, 10, 3.2, 1, 0.3, 0.1 and […] and the degradation occurred at room temperature for 1 hour while shaking on an orbital shaker. The enzymatic reaction was stopped by adding Phosphoramidone (10 μM final concentration). Concentration of amyloid β 1-40 in human plasma pool was measured using ELISA kit (Biosource; KHB3481) according to the manufacturers instructions.
A final concentration of 4.7 mM EDTA was added to the tubes before the concentration of Aβ42 was analyzed using ELISA kit Innotest® β-Amyloid1-42 (Innogenetics, lot#177462, ref#80177) according to the manufacturers instructions.

mouse Aβ40 = assay: Mouse Aβ40 in plasma, time-response after single i.v. dose (Example 26); type: in vivo, C57BL/6 mice; settings: 25 mg/kg single injection, 2 weeks (336 hours)
Excerpt: (§2) The objective of this study was to evaluate the time-response relationship of the mouse version of the Fc-Nep (mFc-Nep, SEQ ID NO 14) in plasma of female APPSWE-tg mice and C57BL/6 mice after a single dose. The specific purpose is to find out how long the reducing effect of mFc-Nep on Aβ stays in the plasma, and to correlate the effect to the level of exposure of test compound in plasma. The γ-secretase inhibitor M-550426 is included as a positive compound.
(§3) 21-23 weeks old female APPSWE-tg mice and 24 weeks old female C57BL/6 mice (6 mice/group) received vehicle or mFc-Nep at 5 or 25 mg/kg as a single intravenous injection and Aβ40 was analysed at different time points after injection (between 1.5-336 hours, i.e., up to 2 weeks). M-550426 was administrated per orally at 300 μmol/kg 3 hours before termination. For both mouse models, APPSWE-tg and C57BL/6, a positive control and blank groups were included. The following groups were included for the APPSWE-tg mice: 25 mg/kg: 1.5, 72, 168 and 336 hours; 5 mg/kg): 336 hours (2 weeks). For C57BL/6 mice: 25 mg/kg: 168 and 336 hours; 5 mg/kg): 1.5, 168 and 336 hours. […]

Aβ 1-42 [2] = assay: Degradation of Aβ 1-42 in APPswe-tg mouse plasma pool (Example 28); type: biochemical; settings: room temperature, 1 hour
Protocol: Mouse plasma collected from 9 animals was stored at −70° C. Plasma was thawed and pooled just before the experiment. Aβ 1-40 and 1-42 in plasma pool was degraded by human Fc-Nep or mouse Fc-Nep with corresponding vehicles (50 mM Tris-HCl, 150 mM NaCl pH 7.5). The following final concentrations of the Fc-Nep constructs were used, 100, 32, 10, 3.2, 1, 0.3, 0.1 and […] and the degradation occurred at room temperature for 1 hour while shaking on an orbital shaker. The enzymatic reaction was stopped by adding Phosphoramidone (10 μM final concentration).
After degradation, a final concentration of 4.7 mM EDTA was added to the tg-mouse plasma tubes and the plasma samples were diluted 3 times in sample diluent, before the concentration of Aβ42 was analyzed using ELISA kit Innotest® β-Amyloid1-42 (Innogenetics, lot#177462, ref#80177) according to the manufacturers instructions. The highest concentration (100 μg/ml) of human Fc-Nep and mouse Fc-Nep degraded human plasma amyloid β 1-40 by 71% and 77%, respectively and Aβ 1-42 by 34% and 53%, respectively, as compared to plasma without Fc-Nep treatment.

[3] = Plasma exposure in C57BL/6 mice (Example 26); type: in vivo; settings: 25 mg/kg single injection
Protocol: (§4) 21-23 weeks old female APPSWE-tg mice and 24 weeks old female C57BL/6 mice (6 mice/group) received vehicle or mFc-Nep at 5 or 25 mg/kg as a single intravenous injection and Aβ40 was analysed at different time points after injection (between 1.5-336 hours, i.e., up to 2 weeks). M-550426 was administrated per orally at 300 μmol/kg 3 hours before termination. For both mouse models, APPSWE-tg and C57BL/6, a positive control and blank groups were included. The following groups were included for the APPSWE-tg mice: 25 mg/kg: 1.5, 72, 168 and 336 hours; 5 mg/kg): 336 hours (2 weeks). For C57BL/6 mice: 25 mg/kg: 168 and 336 hours; 5 mg/kg): 1.5, 168 and 336 hours. […] Blood collection and plasma processing were basically as described in Example 25 The analysis of mouse Aβ40 levels in plasma of C57BL6 mice was as described in Example 25 The analysis of human Aβ40 and Aβ42 levels in plasma of APPSWE-tg mice was as described in Example 25 (as described in the last APP-tg study).

human Aβ40 = assay: Human Aβ40 in plasma, time-response after single i.v. dose (Example 26); type: in vivo, APPSWE-tg mice; settings: 25 mg/kg single i.v.
Excerpt: as §2, §3

amyloid β 1-40 [4] = assay: Degradation of Aβ 1-40 in human plasma pool (Example 28); type: biochemical; settings: room temperature, 1 hour
Protocol: as §1

[5] = Plasma exposure in APPSWE-tg mice (Example 26); type: in vivo; settings: single intravenous injection of 25 mg/kg
Protocol: as §4

amyloid β 1-40 [6] = assay: Degradation of Aβ 1-40 in APPswe-tg mouse plasma pool (Example 28); type: biochemical; settings: room temperature, 1 hour
Protocol: Mouse plasma collected from 9 animals was stored at −70° C. Plasma was thawed and pooled just before the experiment. Aβ 1-40 and 1-42 in plasma pool was degraded by human Fc-Nep or mouse Fc-Nep with corresponding vehicles (50 mM Tris-HCl, 150 mM NaCl pH 7.5). […] The enzymatic reaction was stopped by adding Phosphoramidone (10 μM final concentration).
After degradation, before concentration of amyloid β 1-40 in tg-mouse plasma pool was measured using ELISA kit (Biosource; KHB3481), the plasma samples were diluted 20 times in standard diluent buffer, according to manufacturers instructions.

human Aβ42 = assay: Human Aβ42 in plasma, time-response after single i.v. dose (Example 26); type: in vivo, APPSWE-tg mice; settings: 25 mg/kg single i.v.
[7] = Observations of animal health (Example 26); type: in vivo, APPSWE-tg mice and C57BL/6 mice; settings: 5 or 25 mg/kg single i.v., up to 336 hours
Protocol: as §4

[8] = highest concentration 100 μg/ml

B1: mFc-Nep: mouse version of the Fc-Nep, SEQ ID NO 14 (protein, listed as Mus musculus)
chain: METDTLLLWVLLLWVPGSTGDVPRDCGCKPCICTVPPVSSVFIFPPKPKDVLTITLTPKVTCVVVAISKDDPEVQFSWFVDDVEVHTAQTQPREEQFASTFRSVSELPIMHQDWLNGKEFKCRVNSAAFPAPIEKTISKTKGRPKAPQVYTIPPPKEQMAKDKVSLTCMITDFFPEDITVEWQWNGQPAENYKNTQPIMNTNGSYFVYSKLNVQKSNWEAGNTFTCSVLHEGLHNHHTEKSLSHSPGKYDDGICKSSDCIKSAARLIQNMDASVEPCTDFFKYACGGWLKRNVIPETSSRYSNFDILRDELEVILKDVLQEPKTEDIVAVQKAKTLYRSCINESAIDSRGGQPLLKLLPDIYGWPVASDNWDQTYGTSWTAEKSIAQLNSKYGKKVLINFFVGTDDKNSTQHIIHFDQPRLGLPSRDYYECTGIYKEACTAYVDFMISVARLIRQEQSLPIDENQLSLEMNKVMELEKEIANATTKPEDRNDPMLLYNKMTLAKLQNNFSLEVNGKSFSWSNFTNEIMSTVNINIQNEEEVVVYAPEYLTKLKPILTKYSPRDLQNLMSWRFIMDLVSSLSRNYKESRNAFRKALYGTTSETATWRRCANYVNGNMENAVGRLYVEAAFAGESKHVVEDLIAQIREVFIQTLDDLTWMDAETKKKAEEKALAIKERIGYPDDIISNENKLNNEYLELNYREDEYFENIIQNLKFSQSKQLKKLREKVDKDEWISGAAVVNAFYSSGRNQIVFPAGILQPPFFSAQQSNSLNYGGIGMVIGHEITHGFDDNGRNFNKDGDLVDWWTQQSANNFKDQSQCMVYQYGNFSWDLAGGQHLNGINTLGENIADNGGIGQAYRAYQNYVKKNGEEKLLPGLDLNHKQLFFLNFAQVWCGTYRPEYAVNSIKTDVHSPGNFRIIGTLQNSAEFADAFHCRKNSYMNPERKCRVW
Question: With B1 as the molecule, how does the “Degradation of Aβ 1-42 compared to plasma without treatment” value (Aβ 1-42 [1]; [8]) read?
Answer: Its value is 19%.

Question: And the EC50 (Aβ 1-42 [1])?
Answer: Its EC50 is 180 nM.

Question: And the “Reduction of mouse Aβ40 levels in plasma compared to vehicle” value (mouse Aβ40)?
Answer: The value was 73%.

Question: What about the “Degradation of Aβ 1-42 compared to plasma without treatment” value (Aβ 1-42 [2]; [8]) of the same molecule?
Answer: The value was 53%.

Question: What about the EC50 (Aβ 1-42 [2]) of the same molecule?
Answer: The EC50 was 820 nM.

Question: And the plasma half-life [3]?
Answer: The plasma half-life was “long”.

Question: What about the Plasma exposure ([3]; 336 hours) of the same molecule?
Answer: Its Plasma exposure is 48 µg/mL.

Question: And the “Aβ40 levels compared to vehicle” value (human Aβ40; 1.5 hours)?
Answer: The value was 91%.

Question: What about the “Aβ40 levels compared to vehicle” value (human Aβ40; two weeks (336 hours)) of the same molecule?
Answer: Its value is 58%.

Question: What about the “Degradation of amyloid β 1-40 compared to plasma without treatment” value (amyloid β 1-40 [4]; [8]) of the same molecule?
Answer: Its value is 71%.

Question: And the EC50 (amyloid β 1-40 [4])?
Answer: The EC50 was 400 nM.

Question: And the Plasma exposure ([5]; 1.5 hours)?
Answer: The Plasma exposure was 299 µg/mL.

Question: What about the Plasma exposure ([5]; 336 hours) of the same molecule?
Answer: Its Plasma exposure is 60 µg/mL.

Question: What about the “Degradation of amyloid β 1-40 compared to plasma without treatment” value (amyloid β 1-40 [6]; [8]) of the same molecule?
Answer: Its value is 77%.

Question: What about the EC50 (amyloid β 1-40 [6]) of the same molecule?
Answer: Its EC50 is 340 nM.

Question: And the “Aβ42 levels compared to vehicle” value (human Aβ42; 1.5 hours)?
Answer: The value was 87%.

Question: And the “Aβ42 levels compared to vehicle” value (human Aβ42; two weeks (336 hours))?
Answer: The value was 44%.

Question: And the “Observations of the animal health” value [7]?
Answer: Its value is “no overt adverse effects”.
